From PMC4335501 (2015)

Molecular target: HAdV-52 long fiber knob (human adenovirus type 52 (HAdV-52))
Test: SPR

B1: Recombinant human CAR (CXADR Fc chimera; full length extracellular D1D2 domain) (Fc fusion)
chain: LSITTPEEMIEKAKGETAYLPCKFTLSPEDQGPLDIEWLISPADNQKVDQVIILYSGDKIYDDYYPDLKGRVHFTSNDLKSGDASINVTNLQLSDIGTYQCKVKKAPGVANKKIHLVVLVKPSGARCYVDGSEEIGSDFKIKCEPKEGSLPLQYEWQKLSDSQKMPTSWLAEMTSSVISVKNASSEYSGTYSCTVRNRVGSDQCLLRLNVVPPSNKAG
koff: 0.00221 s⁻¹
